Results published in US20130005944A1 (ANCHOR THERAPEUTICS, published 2013).
Where no end group is shown, it is not given here. [ ]: non-standard residue; d: D form. The star is where a group is joined. Ala(3-Me-diazirin-3-yl) = CC1(C[C@H](N)C(=O)O)N=N1; Hexadecanesulfonyl = CCCCCCCCCCCCCCCCS(=O)(=O)*; 2Nal = N[C@@H](Cc1ccc2ccccc2c1)C(=O)O; Palmitoyl = CCCCCCCCCCCCCCCC(=O)*; Hyp = O=C(O)[C@@H]1C[C@@H](O)CN1; Cit = NC(=O)NCCC[C@H](N)C(=O)O; code z = not defined here; hSer = N[C@@H](CCO)C(=O)O; Nle = CCCC[C@H](N)C(=O)O; Pra = C#CC[C@H](N)C(=O)O; Dap = NC[C@H](N)C(=O)O

biological target: CXCR4 receptor (human, UniProt P61073 1-352); assay: cell-based or functional assay
Sequence (P61073 whole entry): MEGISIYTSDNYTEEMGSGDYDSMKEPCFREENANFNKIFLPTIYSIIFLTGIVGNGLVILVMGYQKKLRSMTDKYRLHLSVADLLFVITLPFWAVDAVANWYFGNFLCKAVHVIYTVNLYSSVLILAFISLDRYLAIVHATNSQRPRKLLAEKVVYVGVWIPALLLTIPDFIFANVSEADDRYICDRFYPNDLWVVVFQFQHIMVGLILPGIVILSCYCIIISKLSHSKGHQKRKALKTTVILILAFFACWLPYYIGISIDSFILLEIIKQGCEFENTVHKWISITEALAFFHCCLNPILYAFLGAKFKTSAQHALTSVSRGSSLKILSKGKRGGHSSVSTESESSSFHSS

Point of comparison: Palmitoyl-GGYQKKLRSATDKYRLH (not fully specified) [Compound No. 40 (Pal-GGYQKKLRSATDKYRLH)], “% Intrinsic Activity, calcium flux, CEM cells (Flexstation)” value 78.7%. Against it:
- Palmitoyl-MGYQKKLRSMTDKYRV (not fully specified) [Compound No. 11 (Pal-MGYQKKLRSMTDKYRV)] — lower, 61.7%
- Pal-[code z]GYQKKLRS[code z]TDKYRL (not fully specified; printed as Pal-zGYQKKLRSzTDKYRL; reading uncertain) [Compound No. 23 (Pal-zGYQKKLRSzTDKYRL)] — higher, 87.2%
- Palmitoyl-GGYQKKLRSATDKYRL (not fully specified (C-terminus)) [Compound No. 25 (Pal-GGYQKKLRSATDKYRL)] — higher, 89.4%
- Pal-MGYQKKLRSMTDKYR[Nle] [Compound No. 12 (Pal-MGYQKKLRSMTDKYR(Nle))] — lower, 73.2%
- Palmitoyl-MGYQKKLRPSMTDKYRL (not fully specified) [Compound No. 8 (Pal-MGYQKKLRPSMTDKYRL)] — higher, 88%
- Pal-MGYQKKLRS[dP]MTDKYRL [Compound No. 9 (Pal-MGYQKKLRSpMTDKYRL)] — lower, 77.9%
- Palmitoyl-MGYQKKLRSMTDKYKL (not fully specified) [Compound No. 13 (Pal-MGYQKKLRSMTDKYKL)] — lower, 61.4%
- Pal-MGYQKKLRSMTDKY[Cit]L [Compound No. 14 (Pal-MGYQKKLRSMTDKY(Cit)L)] — lower, 3.61%
- Pal-[hSer]GYQKKLRS[hSer]TDKYRL [Compound No. 22 (Pal-xGYQKKLRSxTDKYRL)] — lower, 77.7%
- Pal-GGYQKKLR[dP]ATDKYRL [Compound No. 27 (Pal-GGYQKKLRpATDKYRL)] — higher, 111%
- Pal-GGYQKKLR[dP]HTDKYRL [Compound No. 26 (Pal-GGYQKKLRpHTDKYRL)] — higher, 91.2%
- Palmitoyl-MGYQKKLRSGTDKYRL (not fully specified) [Compound No. 19 (Pal-MGYQKKLRSGTDKYRL)] — higher, 101%
- Pal-GGYQKKLR[dP]WTDKYRL [Compound No. 33 (Pal-GGYQKKLRpWTDKYRL)] — higher, 93%
- Pal-MGYQKKLRS[Nle]TDKYRL [Compound No. 17 (Pal-MGYQKKLRS(Nle)TDKYRL)] — lower, 62.7%
- Pal-GGYQKKLR[dP][Hyp]TDKYRL [Compound No. 36 (Pal-GGYQKKLRp(Hyp)TDKYRL)] — lower, 55.2%
- Pal-MGYQKKLRSMTDK[2Nal]RL [Compound No. 16 (Pal-MGYQKKLRSMTDK(Nal)RL)] — lower, 34.4%
- Palmitoyl-GGYQKKLRTATDKYRL (not fully specified) [Compound No. 41 (Pal-GGYQKKLRTATDKYRL)] — higher, 149%
- Pal-GYQKKLRS[Nle]TDKYRI [Compound No. 20 (Pal-GYQKKLRS(Nle)TDKYRI)] — lower, 62.5%
- Palmitoyl-MGYQKKLPRSMTDKYRL (not fully specified) [Compound No. 7 (Pal-MGYQKKLPRSMTDKYRL)] — higher, 100%
- Pal-GGYQKKLR[Hyp]HTDKYRL [Compound No. 35 (Pal-GGYQKKLR(Hyp)HTDKYRL)] — higher, 89.4%
- Palmitoyl-MGYQKKLRSHTDKYRL (not fully specified) [Compound No. 18 (Pal-MGYQKKLRSHTDKYRL)] — higher, 93.4%
- Pal-GGYQKK[dP]R[dP]ATDKYRL [Compound No. 28 (Pal-GGYQKKpRpATDKYRL)] — higher, 107%
- Palmitoyl-CGYQKKLRSATDKYRL (not fully specified) [Compound No. 30 (Pal-CGYQKKLRSATDKYRL)] — higher, 95.3%
- Palmitoyl-MGYQKPLRSMTDKYRL [Compound No. 6 (Pal-MGYQKPLRSMTDKYRL)] — higher, 90.2%
- Pal-GGYQKKLR[dP]ATDKFRL [Compound No. 29 (Pal-GGYQKKLRpATDKFRL)] — higher, 88.9%
- Pal-GGYQKKLR[dP][Dap]TDKYRL [Compound No. 34 (Pal-GGYQKKLRp(Dpr)TDKYRL)] — higher, 103%
- Pal-GGYQKKLR[dP][dP]HTDKYRL [Compound No. 32 (Pal-GGYQKKLRppHTDKYRL)] — higher, 91.1%
- Pal-[Pra]GYQKKLRSMTDKYRL [Compound No. 24 (Pal-(Pra)GYQKKLRSMTDKYRL)] — lower, 76.6%
- Palmitoyl-GGYQKKHRSATDKYRL (not fully specified) [Compound No. 38 (Pal-GGYQKKHRSATDKYRL)] — higher, 86.8%
- Palmitoyl-MGYQKKLRSMTDKFRL (not fully specified) [Compound No. 15 (Pal-MGYQKKLRSMTDKFRL)] — higher, 81.5%
- Pal-GGYQKK[Ala(3-Me-diazirin-3-yl)]RSATDKYRL [Compound No. 37 (Pal-GGYQKK(photoLeu)RSATDKYRL)] — higher, 85.7%
- {3‑(dodecyloxy)propanoate}-GGYQKKLRSATDKYRL (not fully specified (C-terminus)) [Compound No. 31 (3-(dodecyloxy)propanoate-GGYQKKLRSATDKYRL)] — higher, 84.2%

Point of comparison: Pal-GGYQKKLR[dP]ATDKFRL [Compound No. 29 (Pal-GGYQKKLRpATDKFRL)], “EC50 (nM), calcium flux, CEM cells, agonist mode (Flexstation)” value 26.3 nM. Against it:
- Palmitoyl-MGYQKKLRSMTDKYRV (not fully specified) [Compound No. 11 (Pal-MGYQKKLRSMTDKYRV)] — 50-fold higher, 1320 nM
- Pal-[code z]GYQKKLRS[code z]TDKYRL (not fully specified; printed as Pal-zGYQKKLRSzTDKYRL; reading uncertain) [Compound No. 23 (Pal-zGYQKKLRSzTDKYRL)] — 3.2-fold higher, 83 nM
- Palmitoyl-GGYQKKLRSATDKYRL (not fully specified (C-terminus)) [Compound No. 25 (Pal-GGYQKKLRSATDKYRL)] — within 1.5-fold, 36.8 nM
- Pal-MGYQKKLRSMTDKYR[Nle] [Compound No. 12 (Pal-MGYQKKLRSMTDKYR(Nle))] — 9.5-fold higher, 249 nM
- Palmitoyl-MGYQKKLRPSMTDKYRL (not fully specified) [Compound No. 8 (Pal-MGYQKKLRPSMTDKYRL)] — 6.4-fold higher, 169 nM
- Pal-MGYQKKLRS[dP]MTDKYRL [Compound No. 9 (Pal-MGYQKKLRSpMTDKYRL)] — 4.7-fold higher, 123 nM
- Palmitoyl-MGYQKKLRSMTDKYKL (not fully specified) [Compound No. 13 (Pal-MGYQKKLRSMTDKYKL)] — 7.4-fold higher, 194 nM
- Pal-MGYQKKLRSMTDKY[Cit]L [Compound No. 14 (Pal-MGYQKKLRSMTDKY(Cit)L)] — 380-fold higher, 10000 nM
- Pal-[hSer]GYQKKLRS[hSer]TDKYRL [Compound No. 22 (Pal-xGYQKKLRSxTDKYRL)] — 4.8-fold higher, 125 nM
- Pal-GGYQKKLR[dP]ATDKYRL [Compound No. 27 (Pal-GGYQKKLRpATDKYRL)] — 3.3-fold higher, 85.9 nM
- Pal-GGYQKKLR[dP]HTDKYRL [Compound No. 26 (Pal-GGYQKKLRpHTDKYRL)] — 2.1-fold higher, 55.2 nM
- Palmitoyl-MGYQKKLRSGTDKYRL (not fully specified) [Compound No. 19 (Pal-MGYQKKLRSGTDKYRL)] — 14-fold higher, 370 nM
- Pal-GGYQKKLR[dP]WTDKYRL [Compound No. 33 (Pal-GGYQKKLRpWTDKYRL)] — 4.1-fold higher, 109 nM
- Pal-MGYQKKLRS[Nle]TDKYRL [Compound No. 17 (Pal-MGYQKKLRS(Nle)TDKYRL)] — 7.9-fold higher, 208 nM
- Pal-GGYQKKLR[dP][Hyp]TDKYRL [Compound No. 36 (Pal-GGYQKKLRp(Hyp)TDKYRL)] — 23-fold higher, 603 nM
- Pal-MGYQKKLRSMTDK[2Nal]RL [Compound No. 16 (Pal-MGYQKKLRSMTDK(Nal)RL)] — 110-fold higher, 3020 nM
- Palmitoyl-GGYQKKLRSATDKYRLH (not fully specified) [Compound No. 40 (Pal-GGYQKKLRSATDKYRLH)] — 11-fold higher, 297 nM
- Palmitoyl-GGYQKKLRTATDKYRL (not fully specified) [Compound No. 41 (Pal-GGYQKKLRTATDKYRL)] — 4-fold higher, 106 nM
- Pal-GYQKKLRS[Nle]TDKYRI [Compound No. 20 (Pal-GYQKKLRS(Nle)TDKYRI)] — 8.8-fold higher, 232 nM
- Palmitoyl-MGYQKKLPRSMTDKYRL (not fully specified) [Compound No. 7 (Pal-MGYQKKLPRSMTDKYRL)] — 5.8-fold higher, 153 nM
- Pal-GGYQKKLR[Hyp]HTDKYRL [Compound No. 35 (Pal-GGYQKKLR(Hyp)HTDKYRL)] — 1.7-fold higher, 45 nM
- Palmitoyl-MGYQKKLRSHTDKYRL (not fully specified) [Compound No. 18 (Pal-MGYQKKLRSHTDKYRL)] — 4.2-fold higher, 110 nM
- Pal-GGYQKK[dP]R[dP]ATDKYRL [Compound No. 28 (Pal-GGYQKKpRpATDKYRL)] — within 1.5-fold, 25 nM
- Palmitoyl-CGYQKKLRSATDKYRL (not fully specified) [Compound No. 30 (Pal-CGYQKKLRSATDKYRL)] — 5.5-fold higher, 144 nM
- Palmitoyl-MGYQKPLRSMTDKYRL [Compound No. 6 (Pal-MGYQKPLRSMTDKYRL)] — 6.1-fold higher, 161 nM
- Pal-GGYQKKLR[dP][Dap]TDKYRL [Compound No. 34 (Pal-GGYQKKLRp(Dpr)TDKYRL)] — 3.4-fold higher, 89 nM
- Pal-GGYQKKLR[dP][dP]HTDKYRL [Compound No. 32 (Pal-GGYQKKLRppHTDKYRL)] — 2.8-fold higher, 73.2 nM
- Pal-[Pra]GYQKKLRSMTDKYRL [Compound No. 24 (Pal-(Pra)GYQKKLRSMTDKYRL)] — 10-fold higher, 267 nM
- Palmitoyl-GGYQKKHRSATDKYRL (not fully specified) [Compound No. 38 (Pal-GGYQKKHRSATDKYRL)] — within 1.5-fold, 27 nM
- Palmitoyl-MGYQKKLRSMTDKFRL (not fully specified) [Compound No. 15 (Pal-MGYQKKLRSMTDKFRL)] — 5.1-fold higher, 135 nM
- Pal-GGYQKK[Ala(3-Me-diazirin-3-yl)]RSATDKYRL [Compound No. 37 (Pal-GGYQKK(photoLeu)RSATDKYRL)] — 2.7-fold higher, 71.2 nM
- {3‑(dodecyloxy)propanoate}-GGYQKKLRSATDKYRL (not fully specified (C-terminus)) [Compound No. 31 (3-(dodecyloxy)propanoate-GGYQKKLRSATDKYRL)] — 5.9-fold higher, 154 nM

Hexadecanesulfonyl-GGYQKKLR[dP]HTDKYRL-NH2 (also: table lists the lipid as 'Pal') [Compound No. 46 (CH3(CH2)15SO2-GGYQKKLRpHTDKYRL-amide)] was tested, and the “EC50 (nM), calcium flux, CEM cells, agonist mode (FLIPR)” value was 12.5 nM.
